Data published in patent US20130289100 (The Research Foundation for the State University of New York, published 2013).

Key:
Settings in all cases: chain copies: 4 (inferred)
[1] = target: T1, GluA2Qflip AMPA receptor subunit (Rattus norvegicus, UniProt P19491-2 P19491-2:22-883); assay: competition; open-channel conformation; homologous competition with radiolabeled AF42
[2] = target: T1, GluA2Qflip AMPA receptor subunit; assay: competition; closed-channel conformation; homologous competition with radiolabeled AF42
[3] = target: T1, GluA2Qflip AMPA receptor subunit; assay: competition; open-channel conformation; homologous competition with radiolabeled AF44
[4] = target: T1, GluA2Qflip AMPA receptor subunit; assay: competition; unliganded closed-channel conformation; homologous competition with radiolabeled AF44

T1 sequence (P19491 other isoform, or with tags, fused parts or gaps): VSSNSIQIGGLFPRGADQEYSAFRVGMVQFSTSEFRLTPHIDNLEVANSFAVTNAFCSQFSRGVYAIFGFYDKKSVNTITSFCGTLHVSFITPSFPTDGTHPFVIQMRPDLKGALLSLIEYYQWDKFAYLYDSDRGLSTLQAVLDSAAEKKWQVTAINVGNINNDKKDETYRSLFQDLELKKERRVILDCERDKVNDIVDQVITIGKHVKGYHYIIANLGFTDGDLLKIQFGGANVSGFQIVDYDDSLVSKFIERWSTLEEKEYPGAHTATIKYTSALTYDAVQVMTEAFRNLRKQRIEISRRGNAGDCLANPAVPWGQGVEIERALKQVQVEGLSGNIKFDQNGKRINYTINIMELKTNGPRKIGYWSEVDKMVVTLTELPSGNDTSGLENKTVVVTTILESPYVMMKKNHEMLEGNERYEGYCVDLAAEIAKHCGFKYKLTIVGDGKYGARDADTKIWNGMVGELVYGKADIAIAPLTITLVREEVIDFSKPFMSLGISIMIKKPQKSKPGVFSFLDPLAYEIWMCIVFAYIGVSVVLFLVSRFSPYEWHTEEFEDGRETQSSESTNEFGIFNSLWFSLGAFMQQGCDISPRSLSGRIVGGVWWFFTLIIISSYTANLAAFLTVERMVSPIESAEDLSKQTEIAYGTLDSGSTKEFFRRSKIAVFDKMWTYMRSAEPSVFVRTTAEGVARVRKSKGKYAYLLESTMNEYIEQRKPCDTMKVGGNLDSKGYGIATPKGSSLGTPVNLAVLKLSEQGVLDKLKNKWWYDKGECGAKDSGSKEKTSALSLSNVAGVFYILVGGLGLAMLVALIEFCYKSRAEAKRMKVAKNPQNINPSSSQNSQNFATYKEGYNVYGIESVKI

Row | Binder | Kd [1] | Kd [2] | Kd [3] | Kd [4]
1 | GGGAACGGUGCCAGUCCGAAACGGAUCGUUAGAGCAUCAGUA (ssRNA) [AF42] | 44 nM | 57 nM |  | 
2 | GGGAGAAUUCAACUGCCACGGAUAAUAGCCAAUACUACAACCGU (ssRNA) [AF44 (A22)] |  |  | 48 nM | 44 nM
